Laboratory results reported in paper PMC3956926, “Acetate Kinase Isozymes Confer Robustness in Acetate Metabolism” (PLoS ONE, 2014).

B1: AckA2 (Lactococcus cremoris subsp. cremoris MG1363) (protein)
chain: MEKTLAVNAGSSSLKWQLYEMPEETVIAKGIFERIGLSGSISTTKFNNEEHVRKQEIVDHRQAVLLLMDELIHFQLIHEFREITGIGHRVVAGGEFFKDSTIITPEVLAEIKNLSTLAPLHNPANVLGIEAFQRLLPDALAVAVFDTAFHSTLPEKAYRYPIPTKYYEDYSIRKYGAHGTSHMYVAQEAAKVLGKPLEELKIITAHIGNGASITAIEGGKSVDTSMGFTPLAGVMMGTRAGEMDASVIPYMLESDPSLRNAQDVIDILNKESGVLGVSELSSDMRDLSEAVAKGNPKAILAYEMYVDRLKKFIAQYFGVLNGADALIFTAGVGENDTAVRTDVVNGLSWFGMEIDESKNVRGAFGIISKPESKVKVLVVPTNEELVIARDVEAAK
notes: His-tagged (vector pQE30, N-terminal tag kept), from E. coli M15 pREP4 groESL, Ni-NTA; 84 kDa by gel filtration, monomer 43 kDa, homodimer; residue I331 in ATP site
B2: AckA1 (Lactococcus cremoris subsp. cremoris MG1363) (protein)
chain: MTKTLAVNAGSSSMKWQMYEMPEEKVLAKGLIERIGLKDSIVTVKFGEEKEERVFDIPNHTEAVEVLLEDLKRLKIVEEFTEITGVGHRVVAGGEIFQKSTVVTPEVLQQVKDLSALAPLHNPANAAGIEAFLNLLPDATSVVVFDTAFHTTMPEKAFRYPLPKKYYTDYAVRKYGAHGTSHMYVSQEAAKLLGKPIEETKIITAHIGNGASITAVKGGESVDTSMGFTPLAGVMMGTRTGEMDPSVFPYLIENDSELKDAQDVVDMMNKESGLYGVSGISSDMRDIIAAKDTDADAKLAFEMYVDRIQKFIGQYLAVLNGADALVFTAGIGENSVPVREAILSGLTWFGIEVDPEKNVFGVEGEISKPSSRLKVFVIPTDEELVIARDVEALKK
notes: His-tagged (vector pQE30, N-terminal tag kept), from E. coli M15 pREP4 groESL, Ni-NTA; 100 kDa by gel filtration, monomer 43 kDa, homodimer; residue V331 in ATP site

Experiments:
Assay in all cases: purified protein
[1] = substrate: CC(=O)O; conditions: OAc to Ac-P, varying ATP, 4.2 mM MgCl2, 100 mM HEPES, 400 mM potassium glutamate, pH 7.5, apparent Km
[2] = substrate: CC(=O)OP(=O)(O)O; assay type: biochemical, Lactococcus cremoris; conditions: Ac-P to OAc, varying ADP, 5 mM MgSO4, 100 mM HEPES, 400 mM potassium glutamate, pH 7.5
[3] = substrate: Nc1ncnc2c1ncn2[C@@H]1O[C@H](COP(=O)(O)OP(=O)(O)O)[C@@H](O)[C@H]1O; assay type: biochemical, Lactococcus cremoris; conditions: Ac-P to OAc, varying Ac-P, 5 mM MgSO4, 100 mM HEPES, 400 mM potassium glutamate, pH 7.5
[4] = substrate: Nc1ncnc2c1ncn2[C@@H]1O[C@H](COP(=O)(O)OP(=O)(O)OP(=O)(O)O)[C@@H](O)[C@H]1O; assay type: biochemical, Lactococcus cremoris; conditions: OAc to Ac-P, varying acetate, 4.2 mM MgCl2, 100 mM HEPES, 400 mM potassium glutamate, pH 7.5

Protein | Km [1] | kcat [1] [s⁻¹] | Km [2] | Km [3] | kcat [3] [s⁻¹] | Km [4] | kcat [4] [s⁻¹]
B1 | 1.87 (0.29) mM | 394 | 0.086 (0.02) mM | 1.15 (0.12) mM | 282 | 0.21 (0.12) mM | 394
B2 | 22.07 (1.05) mM | 3234 | 0.35 (0.02) mM | 0.94 (0.09) mM | 1033 | 0.086 (0.0078) mM | 3234
